Data taken from publication PMC9482650, “Quantitative fragmentomics allow affinity mapping of interactomes” (Nature Communications, 2022).
Substitutions are numbered along the chain they refer to.

molecular target: HTRA1, Q92743; assay: holdup assay; design: key: below the threshold = too weak to quantify, mostly under pKd 3.1 to 4; conditions: plain residues with an end cap or a label only (N-terminal biotin on a linker: ado-ado)
Sequence (Q92743 360-477): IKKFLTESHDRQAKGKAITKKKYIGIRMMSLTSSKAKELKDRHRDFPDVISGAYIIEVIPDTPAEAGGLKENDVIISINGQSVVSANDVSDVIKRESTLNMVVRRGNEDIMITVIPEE

Binder	pKd
SVISRREWYV [NECTIN3, Q9NQS3]	5.62
LDKESFLTWL [YAP1, P46937]	5.58

molecular target: FRMPD3, Q5JV73; assay: holdup assay; design: key: below the threshold = too weak to quantify, mostly under pKd 3.1 to 4; conditions: plain residues with an end cap or a label only (N-terminal biotin on a linker: ado-ado)
Sequence (Q5JV73 12-100): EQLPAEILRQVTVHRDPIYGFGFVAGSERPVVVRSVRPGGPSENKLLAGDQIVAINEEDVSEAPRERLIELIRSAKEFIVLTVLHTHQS

Binder	pKd
SVISRREWYV [NECTIN3, Q9NQS3]	4.06
LDKESFLTWL [YAP1, P46937]	4.4

molecular target: MAGI2_4, Q86UL8; assay: holdup assay; design: key: below the threshold = too weak to quantify, mostly under pKd 3.1 to 4; conditions: plain residues with an end cap or a label only (N-terminal biotin on a linker: ado-ado)
Sequence (Q86UL8 772-865): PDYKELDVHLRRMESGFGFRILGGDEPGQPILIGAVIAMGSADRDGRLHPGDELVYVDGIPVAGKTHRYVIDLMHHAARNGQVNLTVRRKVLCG

Binder	pKd
SVISRREWYV [NECTIN3, Q9NQS3]	4.11
LDKESFLTWL [YAP1, P46937]	3.94

molecular target: T1, PDZD7_3, Q9H5P4; assay: holdup assay; design: key: below the threshold = too weak to quantify, mostly under pKd 3.1 to 4; conditions: plain residues with an end cap or a label only (N-terminal biotin on a linker: ado-ado)
T1 sequence (Q9H5P4 857-944, limits assumed, looked up): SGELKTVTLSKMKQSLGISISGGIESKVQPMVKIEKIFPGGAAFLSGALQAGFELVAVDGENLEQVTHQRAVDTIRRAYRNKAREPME

Binder	pKd
SVISRREWYV [NECTIN3, Q9NQS3]	below the threshold
LDKESFLTWL [YAP1, P46937]	4.92

molecular target: PDZRN4_1, Q6ZMN7; assay: holdup assay; design: key: below the threshold = too weak to quantify, mostly under pKd 3.1 to 4; conditions: plain residues with an end cap or a label only (N-terminal biotin on a linker: ado-ado)
Sequence (Q6ZMN7 213-318): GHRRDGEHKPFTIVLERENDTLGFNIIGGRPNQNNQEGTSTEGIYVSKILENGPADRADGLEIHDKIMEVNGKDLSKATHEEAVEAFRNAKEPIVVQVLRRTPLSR

Binder	pKd
SVISRREWYV [NECTIN3, Q9NQS3]	below the threshold
LDKESFLTWL [YAP1, P46937]	4.1

molecular target: DLG4_2, P78352; assay: holdup assay; design: key: below the threshold = too weak to quantify, mostly under pKd 3.1 to 4; conditions: plain residues with an end cap or a label only (N-terminal biotin on a linker: ado-ado)
Sequence (P78352 155-259): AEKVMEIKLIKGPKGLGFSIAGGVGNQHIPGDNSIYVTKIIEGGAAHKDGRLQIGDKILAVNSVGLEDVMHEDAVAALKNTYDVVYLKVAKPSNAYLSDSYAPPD

Binder	pKd
SVISRREWYV [NECTIN3, Q9NQS3]	3.75
LDKESFLTWL [YAP1, P46937]	below the threshold

molecular target: T2, LIN7C, Q9NUP9; assay: holdup assay; design: key: below the threshold = too weak to quantify, mostly under pKd 3.1 to 4; conditions: plain residues with an end cap or a label only (N-terminal biotin on a linker: ado-ado)
T2 sequence (Q9NUP9 88-185, limits assumed, looked up): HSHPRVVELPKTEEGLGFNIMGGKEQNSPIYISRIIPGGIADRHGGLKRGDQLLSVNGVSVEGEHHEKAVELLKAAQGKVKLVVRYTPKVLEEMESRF

Binder	pKd
SVISRREWYV [NECTIN3, Q9NQS3]	3.95
LDKESFLTWL [YAP1, P46937]	below the threshold

molecular target: Inadl_10, Q8NI35; assay: holdup assay; design: key: below the threshold = too weak to quantify, mostly under pKd 3.1 to 4; conditions: plain residues with an end cap or a label only (N-terminal biotin on a linker: ado-ado)
Sequence (Q8NI35 1673-1763): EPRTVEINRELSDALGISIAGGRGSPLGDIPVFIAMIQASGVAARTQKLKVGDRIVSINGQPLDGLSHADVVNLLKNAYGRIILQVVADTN

Binder	pKd
SVISRREWYV [NECTIN3, Q9NQS3]	below the threshold
LDKESFLTWL [YAP1, P46937]	5.45

molecular target: ARHGEF12, Q9NZN5-2; assay: holdup assay; design: key: below the threshold = too weak to quantify, mostly under pKd 3.1 to 4; conditions: plain residues with an end cap or a label only (N-terminal biotin on a linker: ado-ado)
Sequence (Q9NZN5 other isoform, or with tags, fused parts or gaps): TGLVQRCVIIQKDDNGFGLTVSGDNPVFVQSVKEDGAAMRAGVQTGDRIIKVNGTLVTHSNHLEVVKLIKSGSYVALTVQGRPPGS

Binder	pKd
SVISRREWYV [NECTIN3, Q9NQS3]	3.64
LDKESFLTWL [YAP1, P46937]	4.84

molecular target: IL16_1, Q14005; assay: holdup assay; design: key: below the threshold = too weak to quantify, mostly under pKd 3.1 to 4; conditions: plain residues with an end cap or a label only (N-terminal biotin on a linker: ado-ado)
Sequence (Q14005 210-306): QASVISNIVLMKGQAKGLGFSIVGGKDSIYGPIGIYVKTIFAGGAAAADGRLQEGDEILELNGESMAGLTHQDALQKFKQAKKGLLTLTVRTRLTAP

Binder	pKd
SVISRREWYV [NECTIN3, Q9NQS3]	3.88
LDKESFLTWL [YAP1, P46937]	3.55

molecular target: LAP2, Q96RT1; assay: holdup assay; design: key: below the threshold = too weak to quantify, mostly under pKd 3.1 to 4; conditions: plain residues with an end cap or a label only (N-terminal biotin on a linker: ado-ado)
Sequence (Q96RT1 other isoform, or with tags, fused parts or gaps): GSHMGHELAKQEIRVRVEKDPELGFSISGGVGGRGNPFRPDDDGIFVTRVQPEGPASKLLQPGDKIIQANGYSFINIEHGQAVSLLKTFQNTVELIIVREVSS

Binder	pKd
SVISRREWYV [NECTIN3, Q9NQS3]	3.59
LDKESFLTWL [YAP1, P46937]	4.2

molecular target: T3, HTRA3, P83110; assay: holdup assay; design: key: below the threshold = too weak to quantify, mostly under pKd 3.1 to 4; conditions: plain residues with an end cap or a label only (N-terminal biotin on a linker: ado-ado)
T3 sequence (P83110 354-453, limits assumed, looked up): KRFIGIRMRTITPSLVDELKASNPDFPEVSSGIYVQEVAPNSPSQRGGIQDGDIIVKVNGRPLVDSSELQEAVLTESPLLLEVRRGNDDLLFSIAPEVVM

Binder	pKd
SVISRREWYV [NECTIN3, Q9NQS3]	4.99
LDKESFLTWL [YAP1, P46937]	5.5

molecular target: LDB3, O75112; assay: holdup assay; design: key: below the threshold = too weak to quantify, mostly under pKd 3.1 to 4; conditions: plain residues with an end cap or a label only (N-terminal biotin on a linker: ado-ado)
Sequence (O75112 1-94): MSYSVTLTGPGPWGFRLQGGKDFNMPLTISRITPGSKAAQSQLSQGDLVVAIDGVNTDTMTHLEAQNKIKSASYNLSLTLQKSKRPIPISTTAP

Binder	pKd
SVISRREWYV [NECTIN3, Q9NQS3]	below the threshold
LDKESFLTWL [YAP1, P46937]	4.36

molecular target: PDLIM1, O00151; assay: holdup assay; design: key: below the threshold = too weak to quantify, mostly under pKd 3.1 to 4; conditions: plain residues with an end cap or a label only (N-terminal biotin on a linker: ado-ado)
Sequence (O00151 1-87): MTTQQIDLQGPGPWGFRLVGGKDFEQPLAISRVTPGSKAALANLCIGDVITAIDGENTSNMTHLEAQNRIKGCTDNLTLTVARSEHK

Binder	pKd
SVISRREWYV [NECTIN3, Q9NQS3]	below the threshold
LDKESFLTWL [YAP1, P46937]	4.1

molecular target: DLG4_3, P78352; assay: holdup assay; design: key: below the threshold = too weak to quantify, mostly under pKd 3.1 to 4; conditions: plain residues with an end cap or a label only (N-terminal biotin on a linker: ado-ado)
Sequence (P78352 306-403): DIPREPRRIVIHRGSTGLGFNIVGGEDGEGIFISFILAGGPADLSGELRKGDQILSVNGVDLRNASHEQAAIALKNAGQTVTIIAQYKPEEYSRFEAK

Binder	pKd
SVISRREWYV [NECTIN3, Q9NQS3]	3.84
LDKESFLTWL [YAP1, P46937]	below the threshold

molecular target: LNX1_3, Q8TBB1; assay: holdup assay; design: key: below the threshold = too weak to quantify, mostly under pKd 3.1 to 4; conditions: plain residues with an end cap or a label only (N-terminal biotin on a linker: ado-ado)
Sequence (Q8TBB1 500-596): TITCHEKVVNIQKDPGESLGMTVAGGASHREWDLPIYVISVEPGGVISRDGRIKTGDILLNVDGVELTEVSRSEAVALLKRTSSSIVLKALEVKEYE

Binder	pKd
SVISRREWYV [NECTIN3, Q9NQS3]	4.81
LDKESFLTWL [YAP1, P46937]	below the threshold

molecular target: T4, LIN7B, Q9HAP6; assay: holdup assay; design: key: below the threshold = too weak to quantify, mostly under pKd 3.1 to 4; conditions: plain residues with an end cap or a label only (N-terminal biotin on a linker: ado-ado)
T4 sequence (Q9HAP6 88-185, limits assumed, looked up): T2 sequence (Q9NUP9 88-185, limits assumed, looked up) with S2A, E13D, I35V, I40V, H65Q, K79S, K89R, S96A

Binder	pKd
SVISRREWYV [NECTIN3, Q9NQS3]	below the threshold
LDKESFLTWL [YAP1, P46937]	3.48

molecular target: T5, NHERF3_3, Q5T2W1; assay: holdup assay; design: key: below the threshold = too weak to quantify, mostly under pKd 3.1 to 4; conditions: plain residues with an end cap or a label only (N-terminal biotin on a linker: ado-ado)
T5 sequence (Q5T2W1 238-333, limits assumed, looked up): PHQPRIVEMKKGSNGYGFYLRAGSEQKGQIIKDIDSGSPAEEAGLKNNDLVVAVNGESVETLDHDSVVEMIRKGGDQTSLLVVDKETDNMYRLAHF

Binder	pKd
SVISRREWYV [NECTIN3, Q9NQS3]	below the threshold
LDKESFLTWL [YAP1, P46937]	4.15

molecular target: GRIP2_7, Q9C0E4; assay: holdup assay; design: key: below the threshold = too weak to quantify, mostly under pKd 3.1 to 4; conditions: plain residues with an end cap or a label only (N-terminal biotin on a linker: ado-ado)
Sequence (Q9C0E4 934-1023): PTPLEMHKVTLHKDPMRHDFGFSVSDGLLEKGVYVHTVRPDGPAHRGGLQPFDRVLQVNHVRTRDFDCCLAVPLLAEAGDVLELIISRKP

Binder	pKd
SVISRREWYV [NECTIN3, Q9NQS3]	5.47
LDKESFLTWL [YAP1, P46937]	4.05

molecular target: MAGI2_3, Q86UL8; assay: holdup assay; design: key: below the threshold = too weak to quantify, mostly under pKd 3.1 to 4; conditions: plain residues with an end cap or a label only (N-terminal biotin on a linker: ado-ado)
Sequence (Q86UL8 600-682): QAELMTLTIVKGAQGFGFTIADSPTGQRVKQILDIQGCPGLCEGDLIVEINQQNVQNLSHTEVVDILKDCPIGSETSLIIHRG

Binder	pKd
SVISRREWYV [NECTIN3, Q9NQS3]	below the threshold
LDKESFLTWL [YAP1, P46937]	below the threshold

molecular target: IL16_4, Q14005; assay: holdup assay; design: key: below the threshold = too weak to quantify, mostly under pKd 3.1 to 4; conditions: plain residues with an end cap or a label only (N-terminal biotin on a linker: ado-ado)
Sequence (Q14005 1229-1329): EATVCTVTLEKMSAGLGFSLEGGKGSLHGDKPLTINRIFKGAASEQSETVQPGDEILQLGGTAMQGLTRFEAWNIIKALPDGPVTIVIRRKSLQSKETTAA

Binder	pKd
SVISRREWYV [NECTIN3, Q9NQS3]	below the threshold
LDKESFLTWL [YAP1, P46937]	below the threshold

molecular target: T6, MPDZ_5, O75970; assay: holdup assay; design: key: below the threshold = too weak to quantify, mostly under pKd 3.1 to 4; conditions: plain residues with an end cap or a label only (N-terminal biotin on a linker: ado-ado)
T6 sequence (O75970 695-796, limits assumed, looked up): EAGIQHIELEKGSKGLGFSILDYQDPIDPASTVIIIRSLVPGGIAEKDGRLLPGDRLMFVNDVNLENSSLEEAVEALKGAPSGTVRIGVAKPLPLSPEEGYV

Binder	pKd
SVISRREWYV [NECTIN3, Q9NQS3]	5.19
LDKESFLTWL [YAP1, P46937]	below the threshold

molecular target: DLG1_1, Q12959; assay: holdup assay; design: key: below the threshold = too weak to quantify, mostly under pKd 3.1 to 4; conditions: plain residues with an end cap or a label only (N-terminal biotin on a linker: ado-ado)

Binder	pKd
SVISRREWYV [NECTIN3, Q9NQS3]	below the threshold
LDKESFLTWL [YAP1, P46937]	4.01

molecular target: T7, GRIP1_4, Q9Y3R0; assay: holdup assay; design: key: below the threshold = too weak to quantify, mostly under pKd 3.1 to 4; conditions: plain residues with an end cap or a label only (N-terminal biotin on a linker: ado-ado)
T7 sequence (Q9Y3R0 467-571, limits assumed, looked up): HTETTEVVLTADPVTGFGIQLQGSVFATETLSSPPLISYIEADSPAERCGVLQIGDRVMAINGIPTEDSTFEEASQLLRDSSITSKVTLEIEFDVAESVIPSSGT

Binder	pKd
SVISRREWYV [NECTIN3, Q9NQS3]	below the threshold
LDKESFLTWL [YAP1, P46937]	below the threshold

molecular target: T8, APBA3_1, O96018; assay: holdup assay; design: key: below the threshold = too weak to quantify, mostly under pKd 3.1 to 4; conditions: plain residues with an end cap or a label only (N-terminal biotin on a linker: ado-ado)
T8 sequence (O96018 389-490, limits assumed, looked up): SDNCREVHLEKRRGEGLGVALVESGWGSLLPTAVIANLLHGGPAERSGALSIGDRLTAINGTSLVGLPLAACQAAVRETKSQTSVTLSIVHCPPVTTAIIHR

Binder	pKd
SVISRREWYV [NECTIN3, Q9NQS3]	below the threshold
LDKESFLTWL [YAP1, P46937]	below the threshold

molecular target: AHNAK1, Q09666; assay: holdup assay; design: key: below the threshold = too weak to quantify, mostly under pKd 3.1 to 4; conditions: plain residues with an end cap or a label only (N-terminal biotin on a linker: ado-ado)
Sequence (Q09666 4-100): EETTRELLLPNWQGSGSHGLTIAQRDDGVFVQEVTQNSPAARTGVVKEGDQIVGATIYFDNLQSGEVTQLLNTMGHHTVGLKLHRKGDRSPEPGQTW

Binder	pKd
SVISRREWYV [NECTIN3, Q9NQS3]	below the threshold
LDKESFLTWL [YAP1, P46937]	below the threshold

molecular target: T9, APBA2_2, Q99767; assay: holdup assay; design: key: below the threshold = too weak to quantify, mostly under pKd 3.1 to 4; conditions: plain residues with an end cap or a label only (N-terminal biotin on a linker: ado-ado)
T9 sequence (Q99767 654-744, limits assumed, looked up): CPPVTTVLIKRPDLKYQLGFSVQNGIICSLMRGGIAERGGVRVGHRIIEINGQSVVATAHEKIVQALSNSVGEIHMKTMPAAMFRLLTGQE

Binder	pKd
SVISRREWYV [NECTIN3, Q9NQS3]	below the threshold
LDKESFLTWL [YAP1, P46937]	below the threshold

molecular target: DLG2_2, Q15700; assay: holdup assay; design: key: below the threshold = too weak to quantify, mostly under pKd 3.1 to 4; conditions: plain residues with an end cap or a label only (N-terminal biotin on a linker: ado-ado)
Sequence (Q15700 189-283): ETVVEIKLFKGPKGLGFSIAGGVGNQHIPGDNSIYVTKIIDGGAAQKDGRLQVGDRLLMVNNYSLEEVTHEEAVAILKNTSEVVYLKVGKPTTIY

Binder	pKd
SVISRREWYV [NECTIN3, Q9NQS3]	3.49
LDKESFLTWL [YAP1, P46937]	below the threshold

molecular target: Inadl_5, Q8NI35; assay: holdup assay; design: key: below the threshold = too weak to quantify, mostly under pKd 3.1 to 4; conditions: plain residues with an end cap or a label only (N-terminal biotin on a linker: ado-ado)
Sequence (Q8NI35 673-780): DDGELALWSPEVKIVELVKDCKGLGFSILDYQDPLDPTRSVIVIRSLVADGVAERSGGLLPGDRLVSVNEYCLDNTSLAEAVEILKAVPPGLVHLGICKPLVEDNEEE

Binder	pKd
SVISRREWYV [NECTIN3, Q9NQS3]	5.43
LDKESFLTWL [YAP1, P46937]	below the threshold
